One experiment has as its target Jurkat (human) (UniProt P07766). The experiment is described as follows: FACS binding, Jurkat cells. To be noted: bispecific antibody.
A further experiment deals with SNU620 (human) (UniProt P56856). The experiment is described as follows: FACS binding, SNU620 cells. The conditions noted are these: bispecific antibody.

The term EC50 denotes the concentration giving half of the maximal effect.

Chain of Jurkat (human) (P07766 23-207): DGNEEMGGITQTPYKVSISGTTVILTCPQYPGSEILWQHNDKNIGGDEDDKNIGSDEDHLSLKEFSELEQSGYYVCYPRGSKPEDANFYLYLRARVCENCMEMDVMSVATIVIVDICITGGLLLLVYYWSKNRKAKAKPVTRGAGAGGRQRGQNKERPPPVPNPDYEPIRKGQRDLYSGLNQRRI

AMG-910: the figures for the EC50 in the experiment with Jurkat (human) and in the experiment with SNU620 (human) were 0.55 nM and 87.8 nM, respectively.
